The source of these data is patent US20240117029A1 (Hoffmann-La Roche, published 2024).

In test [1] the target is T1, human CCL2 (MCP1) - wild type (wt) (human, UniProt P13500 24-99).
T1 construct: Entry is without signal peptide; Made in-house or bought from R&D Systems (279-MC), depending on the assay; monomer-dimer equilibrium; also called wt human CCL2; hCCL2
The experiment in a line: SPR Biacore T200, 25 C, pH 8.3, antibody captured via anti-human Fc, 1:1 model.
Experimental: (§1) An antibody capture system was established. […] The capture system was regenerated by an injection at 20 μl/min with HBS buffer (100 mM HEPES pH 7.4, 1.5 M NaCl, 0.05% (w/v) Tween 20), followed by a 1 min 15 sec injection with 10 mM NaOH and two 10 mM glycine buffer pH 2.5 injections for 1 min. Antibodies were captured were injected for 30 sec at 10 μl/min at 80 nM concentration diluted in the respective system buffer. […] The analyte contact time was 3 min and the dissociation time was 10 min. Analyte kinetics were performed at 50 μl/min.
(§2) The Biaevaluation software V.3.0 was used according to the instructions of the manufacturer GEHC. A 1:1 binding model with RMAX local was applied to determine kinetic rates.

The target of test [2] is T1, human CCL2 (MCP1) - wild type (wt). The test is described as follows: SPR Biacore T200, 25 C, pH 5.9, antibody captured via anti-human Fc, 1:1 model.
Experimental: as §1, §2
Test [3] shares this target. The test is described as follows: SPR Biacore T200, 25 C, pH 6.3, antibody captured via anti-human Fc, 1:1 model.
Experimental: as §1, §2
For test [4] the target is unchanged. The test is described as follows: SPR Biacore T200, 25 C, pH 6.7, antibody captured via anti-human Fc, 1:1 model.
Experimental: as §1, §2
Test [5] has the same target. The test is described as follows: SPR Biacore T200, 25 C, pH 7.1, antibody captured via anti-human Fc, 1:1 model.
Experimental: as §1, §2
The target is the same in test [6]. The experiment in a line: SPR Biacore T200, 25 C, pH 7.4, antibody captured via anti-human Fc, 1:1 model.
Experimental: as §1, §2
For test [7] the target is unchanged. The experiment in a line: SPR Biacore T200, 25 C, pH 7.9, antibody captured via anti-human Fc, 1:1 model.
Experimental: as §1, §2
The target is the same in test [8]. The experiment in a line: SPR Biacore T200, 37 C, antibody captured, CCL2 as analyte, 1:1 model.
Experimental: (§3) Antibody clone supernatants were diluted 1:2 in system buffer and were captured for 1 min at 5 μl/min. […] Analyte kinetics were performed at 30 μl/min. […] Analytes were injected at 90 nM highest concentration. The analyte contact time was 3 min and the dissociation time was 10 min. The Biaevaluation software V.3.0 was used according to the instructions of the manufacturer GEHC. A 1:1 binding model with RMAX local was applied to apparently estimate kinetic rates.
Test [9] deals with T2, human CCL2 (MCP1) - P8A variant (human, UniProt P13500 24-99).
T2 construct: Entry is without signal peptide; P8A prevents dimer formation (pure monomer); made in-house; also called monomeric human CCL2; monomeric CCL2
Described as above.
Experimental: as §3

Test [10] deals with T1, human CCL2 (MCP1) - wild type (wt). The test is described as follows: SPR Biacore T200, 25 C, pH 5.5, antibody captured via anti-human Fc, 1:1 model.
Experimental: as §1, §2
The target is the same in test [11]. The experiment in a line: cell-based or functional assay.
Test [12] shares this target. The test is described as follows: SPR, 25 C, pH 7.4, antibody captured via anti-human Fc on C1 chip, wt CCL2 as analyte, 1:1 model.
Experimental: The sample and system buffer was PBS-T (10 mM phosphate buffered saline including 0.05% Tween20) pH 7.4. The flow cell was set to 25° C.—and the sample block set to 12° C.—and primed with running buffer twice. The bispecific antibody was captured by injecting a 2 μg/ml solution for 60 sec at a flow rate of 10 μl/min. Association was measured by injection of human CCL2 (wt) in various concentrations in solution for 150 sec at a flow rate of 30 μl/min starting with 30 nM in 1:10 dilutions. The dissociation phase was monitored for up to 1200 sec and triggered by switching from the sample solution to running buffer. […] Bulk refractive index differences were corrected by subtracting the response obtained from a goat anti human IgG Fc surface. Blank injections are also subtracted (=double referencing). For calculation of kinetic parameters, the Langmuir 1:1 model was used.

B1: ABN912 (antibody, human IgG1, V domains shown)
VH: EVQLVQSGGGLVQPGGSLRLSCAASGFTFSHYWMSWVRQAPGKGLEWLANIEQDGSEKYYVDSVKGRFTISRDNAKNSLYLQMNSLRAEDTAVYFCARDLEGLHGDGYFDLWGRGTLVTVSS
VL: AIQLTQSPSSLSASVGDRVILTCRASQGVSSALAWYQQKPGKAPKLLIYDASSLESGVPSRFSGSGSGPDFTLTISSLQPEDFATYFCQQFNSYPLTFGGGTKVEIK
notes: Generated as human IgG1 wild type and IgG1 PGLALA with kappa light chain; also called AB912; CCL2-0003
As to B1, the “t½-diss.” value is 0.583 h in [1]; 0.0167 h in test [2]; 0.05 h in test [3]; 0.133 h in [4]; 0.333 h in [5]; 0.55 h in test [6]. The “t½-diss.” value in test [7] amounted to 0.417 h; in test [10] it was 0.0005 h. The “T½” value in test [8] is 0.55 h; in test [9] it was 0.417 h.

B2: Humanized 11K2 (antibody, human IgG1, V domains shown)
VH: QVQLVQSGAEVKKPGSSVKVSCKASGLTISDTYMHWVRQAPGQGLEWMGRIDPANGNTKFDPKFQGRVTITADTSTSTAYMELSSLRSEDTAVYYCARGVFGFFDYWGQGTTVTVSS
VL: DIQMTQSPSSLSASVGDRVTITCKATEDIYNRLAWYQQKPGKAPKLLISGATSLETGVPSRFSGSGSGTDYTLTISSLQPEDFATYYCQQFWSAPYTFGGGTKVEIK
notes: Generated as human IgG1 wild type and IgG1 PGLALA with kappa light chain; also called CCL2-0002; humanized 11k2 IgG1
For the molecule B2, the “t½-diss.” value in test [1] was found to be 19.2 h; in [2], 4.78 h; in test [3] it was 19.2 h; in test [4], 4.87 h; in test [5], 3.58 h; in test [6], 2.72 h. Moreover, the “t½-diss.” value in test [7] amounted to 2.75 h; in test [10], 1.97 h. Also, the “IC50, inhibition of THP-1 migration towards recombinant huCCL2” value in [11] was 0.7 µg/mL. The figures for the “T½” value in [8] and in test [9] were 1.97 h and 1.93 h, respectively.

B3: 1A4//2F6-PGLALA (bispecific antibody, V domains shown)
VH 1: QSLEESGGDLVKPGASLTLTCTASELDFYWICWVRQAPGKGLEWIACIGAGSSGSTYYASWAKGRFTVSKTSSTTVTLQMTSLTAADTATYFCARTGTEFTYYSLWGPGTLVTVSS
VL 1: ALVMTQTPSSVSAAVGGTVTINCQASQSVYNNNMAWYQQKPGQPPKLLIYTASSLASGVPSHFRGSGSGTQFTLTISDLESDDAATYYCAGYKSYSNDEYGFGGGTEVVVK
VH 2: QSLEESGGGLVQPEGSLTLTCTASGFSFNNNYYMCWVRQAPGKGLEWIGCISTDDSNTHYASWAQGRFTISKASSTALTLQVAGLTVADMATYFCARDAHFTSYGYGFDLWGPGTLVTVSS
VL 2: DIVMTQTPASVSAAVGGTVSINCRASEDIENLVAWYQQKPGQPPKLLIYQASKLASGVPSRFKGSGSGAEFTLTIGDLESADAATYYCQGDYGSGWIMYSFGGGTDLVVK
notes: CrossMab: 1A4 arm VH/VL crossed, 2F6 arm non-crossed with CH1/CL charge modifications, knobs-into-holes, human IgG1 with L234A, L235A, P329G; also called CCL2-0054; P1AA3459
With B3, the binding result in test [12] is “binds”.

B4: 1A4//2F6-WT IgG1 (bispecific antibody, V domains shown)
VH 1: B3 VH 1
VL 1: B3 VL 1
VH 2: B3 VH 2
VL 2: B3 VL 2
notes: CrossMab: 1A4 arm VH/VL crossed, 2F6 arm non-crossed with CH1/CL charge modifications, knobs-into-holes, human IgG1 wild type Fc; also called CCL2-0057; P1AA3400
Take B4: the binding result in [12] is on record as “binds”.
